Key:
IgG [1] = experiment: column chromatography, ligand coupled to agarose, IgG loaded at 1 mg/ml, before alkali treatment
IgG [2] = experiment: SPR, Biacore 4000; IgG amine-coupled to CM5 chip, C domain construct as analyte

In the case of (Native C-domain) 4, the Initial IgG capability (dynamic binding capacity at 10% breakthrough) (IgG [1]) is reported as 165 mg/mL and the Kd (IgG [2]) is reported as 7.18 nM.
